Test results published in PMC12628175.

Target: Recombinant human G-CSFR (granulocyte-colony-stimulating factor receptor) (human) (UniProt Q99062)
Chain of UniProt Q99062 (Q99062 25-333): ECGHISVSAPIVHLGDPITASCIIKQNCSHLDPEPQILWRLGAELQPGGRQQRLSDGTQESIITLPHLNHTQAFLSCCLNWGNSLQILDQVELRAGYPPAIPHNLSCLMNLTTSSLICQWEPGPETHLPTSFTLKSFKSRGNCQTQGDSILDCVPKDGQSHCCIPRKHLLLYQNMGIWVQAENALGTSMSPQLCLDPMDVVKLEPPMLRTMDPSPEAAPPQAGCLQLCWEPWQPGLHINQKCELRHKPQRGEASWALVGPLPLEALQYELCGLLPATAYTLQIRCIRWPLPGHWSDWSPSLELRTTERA

- EC50 (pM) of proliferation of murine NFS-60 cells (48 h, CellTiter-Blue; receptor of the cells); rhG-CSF self-made from E. coli: 2.6 pM
Substance: Recombinant human granulocyte colony-stimulating factor (rhG-CSF) (from UniProt P09919 31-207) (ligand)
